Results from patent US20120316071A1.

Legend:
[1] = molecular target: rHuman CD44/Fc Chimera, CF (R&D Systems Cat#3660-CD) (human) (UniProt P16070); experiment: MSD Multispot ECL, antigen spotted on plate, Fab in solution; blank spot of the row 300
[2] = molecular target: rHuman ErbB2/Fc Chimera, CF (R&D Systems Cat#1129-ER) (human) (UniProt P04626); experiment: as above
[3] = molecular target: rHuman IGF-1 sR, (IGF-1 sR), CF (R&D Systems Cat#391-GR) (human) (UniProt P08069); experiment: as above
[4] = molecular target: rHuman CD44/Fc Chimera, CF (R&D Systems Cat#3660-CD) (human) (UniProt P16070); experiment: MSD Multispot ECL, antigen spotted on plate, Fab in solution; blank spot of the row 240
[5] = molecular target: rHuman ErbB2/Fc Chimera, CF (R&D Systems Cat#1129-ER) (human) (UniProt P04626); experiment: as above
[6] = molecular target: rHuman IGF-1 sR, (IGF-1 sR), CF (R&D Systems Cat#391-GR) (human) (UniProt P08069); experiment: as above
[7] = molecular target: rHuman Notch-1/Fc Chimera, CF (R&D Systems Cat#3647-TK) (human) (UniProt P46531); experiment: ECL (MSD) multispot binding assay, antigen spotted on the plate, Fab in solution; blank spot of this well 213
[8] = molecular target: rHuman IGF-1 sR, CF (R&D Systems Cat#391-GR) (human) (UniProt P08069); experiment: as above
[9] = molecular target: rHuman HGF R/c-MET/Fc Chimera, CF (R&D Systems Cat#358-MT/CF) (human) (UniProt P08581); experiment: as above
[10] = molecular target: rHuman CD44/Fc Chimera, CF (R&D Systems Cat#3660-CD) (human) (UniProt P16070); experiment: as above
[11] = molecular target: rHuman EGF R/Fc Chimera, CF (R&D Systems Cat#344-ER) (human) (UniProt P00533); experiment: as above
[12] = molecular target: rHuman ErbB2/Fc Chimera, CF (R&D Systems Cat#1129-ER) (human) (UniProt P04626); experiment: as above
[13] = molecular target: rHuman CD44/Fc Chimera, CF (R&D Systems Cat#3660-CD) (human) (UniProt P16070); experiment: MSD Multispot ECL, antigen spotted on plate, Fab in solution; blank spot of the row 424
[14] = molecular target: rHuman ErbB2/Fc Chimera, CF (R&D Systems Cat#1129-ER) (human) (UniProt P04626); experiment: as above
[15] = molecular target: rHuman IGF-1 sR, (IGF-1 sR), CF (R&D Systems Cat#391-GR) (human) (UniProt P08069); experiment: as above
[16] = molecular target: rHuman Erythropoietin R/Fc Chimera, CF (R&D Systems Cat#963-ER) (human) (UniProt P19235); experiment: ECL multispot (MSD) binding assay, antigen spotted on plate; note: test concentration or dose not given here
[17] = molecular target: rHuman ErbB2/Fc Chimera, CF (R&D Systems Cat#1129-ER) (human) (UniProt P04626); experiment: MSD Multispot ECL, antigen spotted on plate, Fab in solution; blank spot of the row 373
[18] = molecular target: rHuman IGF-1 sR, (IGF-1 sR), CF (R&D Systems Cat#391-GR) (human) (UniProt P08069); experiment: as above
[19] = molecular target: rHuman CD44/Fc Chimera, CF (R&D Systems Cat#3660-CD) (human) (UniProt P16070); experiment: MSD Multispot ECL, antigen spotted on plate, Fab in solution; blank spot of the row 297
[20] = molecular target: rHuman ErbB2/Fc Chimera, CF (R&D Systems Cat#1129-ER) (human) (UniProt P04626); experiment: as above
[21] = molecular target: rHuman IGF-1 sR, (IGF-1 sR), CF (R&D Systems Cat#391-GR) (human) (UniProt P08069); experiment: as above
[22] = molecular target: rHuman EGF R/Fc Chimera, CF (R&D Systems Cat#344-ER) (human) (UniProt P00533); experiment: ECL Multispot (MSD), antigen spotted, Fab 50.00 (column head 'Fab [µM]'); blank 223
[23] = molecular target: rHuman Erythropoietin R/Fc Chimera, CF (R&D Systems Cat#963-ER) (human) (UniProt P19235); experiment: as above
[24] = molecular target: rHuman Erythropoietin R/Fc Chimera, CF (R&D Systems Cat#963-ER) (human) (UniProt P19235); experiment: MSD ECL multispot assay, antigen spotted on plate, Fab in solution; blank spot of this row 277; note: test concentration or dose not given here
[25] = molecular target: rHuman EGF R/Fc Chimera, CF (R&D Systems Cat#344-ER) (human) (UniProt P00533); experiment: ECL Multispot (MSD), antigen spotted, Fab 0.50 (column head 'Fab [µM]'); blank 206
[26] = molecular target: rHuman Erythropoietin R/Fc Chimera, CF (R&D Systems Cat#963-ER) (human) (UniProt P19235); experiment: as above
[27] = molecular target: rHuman Erythropoietin R/Fc Chimera, CF (R&D Systems Cat#963-ER) (human) (UniProt P19235); experiment: ECL Multispot (MSD), antigen spotted; Fab 5 (µM); blank 102; first of duplicates
[28] = molecular target: rHuman Erythropoietin R/Fc Chimera, CF (R&D Systems Cat#963-ER) (human) (UniProt P19235); experiment: MSD ECL multispot assay, antigen spotted on plate, Fab in solution; blank spot of this row 274; note: test concentration or dose not given here
[29] = molecular target: rHuman Erythropoietin R/Fc Chimera, CF (R&D Systems Cat#963-ER) (human) (UniProt P19235); experiment: ECL Multispot (MSD), antigen spotted; Fab 50 (µM); blank 332; first of duplicates
[30] = molecular target: rHuman Erythropoietin R/Fc Chimera, CF (R&D Systems Cat#963-ER) (human) (UniProt P19235); experiment: ECL Multispot (MSD), antigen spotted; Fab 500 (µM); blank 570; first of duplicates
[31] = molecular target: rHuman EGF R/Fc Chimera, CF (R&D Systems Cat#344-ER) (human) (UniProt P00533); experiment: ECL Multispot (MSD), antigen spotted, Fab 500.00 (column head 'Fab [µM]'); blank 495
[32] = molecular target: rHuman Erythropoietin R/Fc Chimera, CF (R&D Systems Cat#963-ER) (human) (UniProt P19235); experiment: as above
[33] = molecular target: rHuman Erythropoietin R/Fc Chimera, CF (R&D Systems Cat#963-ER) (human) (UniProt P19235); experiment: ECL Multispot (MSD), antigen spotted; Fab 0.50 (µM); blank 95; first of duplicates
[34] = molecular target: rHuman EGF R/Fc Chimera, CF (R&D Systems Cat#344-ER) (human) (UniProt P00533); experiment: ECL Multispot (MSD), antigen spotted, Fab 5.00 (column head 'Fab [µM]'); blank 268
[35] = molecular target: rHuman Erythropoietin R/Fc Chimera, CF (R&D Systems Cat#963-ER) (human) (UniProt P19235); experiment: as above
[36] = molecular target: rHuman Erythropoietin R/Fc Chimera (human) (UniProt P19235); experiment: ECL multispot (MSD) binding assay; antigen spotted on plate, Fab in solution; note: test concentration or dose not given here
[37] = molecular target: rHuman Erythropoietin R/Fc Chimera, CF (R&D Systems Cat#963-ER) (human) (UniProt P19235); experiment: MSD ECL multispot assay, antigen spotted on plate, Fab in solution; blank spot of this row 282; note: test concentration or dose not given here
[38] = molecular target: rHuman ErbB2/Fc Chimera, CF (R&D Systems Cat#1129-ER) (human) (UniProt P04626); experiment: MSD Multispot ECL, antigen spotted on plate, Fab in solution; blank spot of the row 351
[39] = molecular target: rHuman IGF-1 sR, (IGF-1 sR), CF (R&D Systems Cat#391-GR) (human) (UniProt P08069); experiment: as above
[40] = molecular target: rHuman Erythropoietin R/Fc Chimera, CF (human) (UniProt P19235); experiment: ECL multispot (MSD) assay, antigen spotted on the plate, Fab in solution; blank spot of the same well 284; note: test concentration or dose not given here
[41] = molecular target: rHuman ErbB2/Fc Chimera, CF (R&D Systems Cat#1129-ER) (human) (UniProt P04626); experiment: MSD Multispot ECL, antigen spotted on plate, Fab in solution; blank spot of the row 337
[42] = molecular target: rHuman IGF-1 sR, (IGF-1 sR), CF (R&D Systems Cat#391-GR) (human) (UniProt P08069); experiment: as above
[43] = molecular target: rHuman ErbB2/Fc Chimera, CF (R&D Systems Cat#1129-ER) (human) (UniProt P04626); experiment: MSD Multispot ECL, antigen spotted on plate, Fab in solution; blank spot of the row 316
[44] = molecular target: rHuman IGF-1 sR, (IGF-1 sR), CF (R&D Systems Cat#391-GR) (human) (UniProt P08069); experiment: as above

Work on “Fab VH5-51_IGHD5-18*01>3_IGHJ4*01 G100K/G104T I34A & V3-4_IGLJ1*01” yielded an ECL signal [1] of 608, an ECL signal [2] of 1150 and an ECL signal [3] of 923.

Substance “Fab VH5-51_IGHD5-18*01>3_IGHJ4*01 G100K/G104T (KT) & V3-4_IGLJ1*01” has an ECL signal [4] of 633, an ECL signal [5] of 1070 and an ECL signal [6] of 964. The ECL signal [7] was 437, the ECL signal [8] was 781 and the ECL signal [9] was 867. The ECL signal [10] was 540, the ECL signal [11] was 768 and the ECL signal [12] was 1100. For the same substance, the ECL signal [13] was 579, the ECL signal [14] was 1100 and the ECL signal [15] was 877.

In the case of “Fab VH1-46_IGHD6-6*01_IGHJ1*01 S102A/S103P/S104F/H111F (APFF) & L6_IGKJ1*01 S31A”, the ECL signal [16] is reported as 461.

“Fab VH5-51_IGHD5-18*01>3_IGHJ4*01 G100K/G104T G24A & V3-4_IGLJ1*01” showed an ECL signal [17] of 869 and an ECL signal [18] of 879.

With “Fab VH5-51_IGHD5-18*01>3_IGHJ4*01 G100K/G104T G35A & V3-4_IGLJ1*01” the ECL signal [19] was 624, the ECL signal [20] was 911 and the ECL signal [21] was 899.

Work on “Fab VH1-46_IGHD6-6*01_IGHJ1*01 S102A/S103P/S104F/H111F (APFF) & L6_IGKJ1*01” yielded an ECL signal [22] of 552, an ECL signal [23] of 879 and an ECL signal [24] of 467. The ECL signal [25] was 266, the ECL signal [26] was 298 and the ECL signal [27] was 294. It also gave an ECL signal [28] of 473, an ECL signal [29] of 736 and an ECL signal [30] of 4720. It also gave an ECL signal [31] of 2900, an ECL signal [32] of 4970 and an ECL signal [33] of 122. It also gave an ECL signal [34] of 303, an ECL signal [35] of 423 and an ECL signal [36] of 433. The ECL signal [37] was 1060.

With “Fab VH5-51_IGHD5-18*01>3_IGHJ4*01 G100K/G104T T30A & V3-4_IGLJ1*01” the ECL signal [38] was 1070 and the ECL signal [39] was 968.

For “Fab VH1-46_IGHD6-6*01_IGHJ1*01 S102A/S103P/S104F/H111F (APFF) & L6_IGKJ1*01 S31Y”, the ECL signal [40] was 604.

“Fab VH5-51_IGHD5-18*01>3_IGHJ4*01 G100K/G104T F29A & V3-4_IGLJ1*01” was tested, and the ECL signal [41] was 1040 and the ECL signal [42] was 945.

In the case of “Fab VH5-51_IGHD5-18*01>3_IGHJ4*01 G100K/G104T S28A & V3-4_IGLJ1*01”, the ECL signal [43] is reported as 1070 and the ECL signal [44] is reported as 924.
